From US20090142784

Columns and labels:
[1] = system: T1, LRRKtide peptide (RLGRDKYKTLRQIRQ)
T1 sequence: RLGRDKYKTLRQIRQ

[2] = system: T2, LongLRRKtide (RLGRDKYKTLRQIRQGNTKQR)
T2 sequence: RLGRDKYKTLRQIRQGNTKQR

With GST-LRRK2[1326-2527] the “Km (phosphorylation of LRRKtide, P81 paper 32P assay)” value [1] was “a similar Km of approximately 200 µM” and the “affinity relative to LRRKtide (from phosphorylation with LRRK2)” value [2] was “The LRRK2 affinity for the longLRRKtide is ten fold more than that that of LRRKtide”.
